Reference: IntAct's records for PubMed 17483306

B1: ATPase 2, plasma membrane-type (Arabidopsis thaliana (Mouse-ear cress)), P19456 (parent)
chain: MSSLEDIKNETVDLEKIPIEEVFQQLKCSREGLTTQEGEDRIQIFGPNKLEEKKESKLLKFLGFMWNPLSWVMEMAAIMAIALANGDGRPPDWQDFVGIICLLVINSTISFIEENNAGNAAAALMAGLAPKTKVLRDGKWSEQEAAILVPGDIVSIKLGDIIPADARLLEGDPLKVDQSALTGESLPVTKHPGQEVFSGSTCKQGEIEAVVIATGVHTFFGKAAHLVDSTNQVGHFQKVLTAIGNFCICSIAIGMVIEIIVMYPIQRRKYRDGIDNLLVLLIGGIPIAMPTVLSVTMAIGSHRLSQQGAITKRMTAIEEMAGMDVLCSDKTGTLTLNKLSVDKNLVEVFCKGVEKDQVLLFAAMASRVENQDAIDAAMVGMLADPKEARAGIREVHFLPFNPVDKRTALTYIDGSGNWHRVSKGAPEQILELAKASNDLSKKVLSIIDKYAERGLRSLAVARQVVPEKTKESPGAPWEFVGLLPLFDPPRHDSAETIRRALNLGVNVKMITGDQLAIGKETGRRLGMGTNMYPSSALLGTHKDANLASIPVEELIEKADGFAGVFPEHKYEIVKKLQERKHIVGMTGDGVNDAPALKKADIGIAVADATDAARGASDIVLTEPGLSVIISAVLTSRAIFQRMKNYTIYAVSITIRIVFGFMLIALIWEFDFSAFMVLIIAILNDGTIMTISKDRVKPSPTPDSWKLKEIFATGVVLGGYQAIMTVIFFWAAHKTDFFSDTFGVRSIRDNNHELMGAVYLQVSIISQALIFVTRSRSWSFVERPGALLMIAFLIAQLIATLIAVYANWEFAKIRGIGWGWAGVIWLYSIVTYFPLDVFKFAIRYILSGKAWLNLFENKTAFTMKKDYGKEEREAQWALAQRTLHGLQPKEAVNIFPEKGSYRELSEIAEQAKRRAEIARLRELHTLKGHVESVVKLKGLDIETPSHYTV
partner: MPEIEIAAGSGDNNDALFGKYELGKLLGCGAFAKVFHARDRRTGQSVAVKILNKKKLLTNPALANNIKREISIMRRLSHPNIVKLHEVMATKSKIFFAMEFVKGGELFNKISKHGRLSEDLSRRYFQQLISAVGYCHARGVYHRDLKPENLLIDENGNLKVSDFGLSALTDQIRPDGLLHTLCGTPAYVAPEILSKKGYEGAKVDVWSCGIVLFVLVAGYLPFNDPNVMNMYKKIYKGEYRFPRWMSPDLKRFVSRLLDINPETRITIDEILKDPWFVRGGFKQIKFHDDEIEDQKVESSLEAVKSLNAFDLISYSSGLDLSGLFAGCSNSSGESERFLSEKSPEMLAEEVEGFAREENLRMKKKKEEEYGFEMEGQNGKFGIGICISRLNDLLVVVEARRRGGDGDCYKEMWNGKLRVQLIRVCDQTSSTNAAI
B2: ATPase 2, plasma membrane-type (Arabidopsis thaliana (Mouse-ear cress)), P19456 (parent)
chain: B1 chain
partner: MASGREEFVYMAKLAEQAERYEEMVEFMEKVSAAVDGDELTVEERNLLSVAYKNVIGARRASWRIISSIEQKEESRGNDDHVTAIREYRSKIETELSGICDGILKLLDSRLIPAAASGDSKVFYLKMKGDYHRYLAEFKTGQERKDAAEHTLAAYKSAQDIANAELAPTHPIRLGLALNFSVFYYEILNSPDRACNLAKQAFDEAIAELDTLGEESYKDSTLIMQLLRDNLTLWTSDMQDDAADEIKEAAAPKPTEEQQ

Variants of: B1
Conditions: with cipkb_arath CIPK11, O22932

Row | effect of a mutation on the interaction | Variant
1 | disrupting interaction | S931A

Variants of: B2
Conditions: with 14332_arath GRF2, Q01525

Row | effect of a mutation on the interaction | Variant
2 | decreasing interaction | R913A;S931D
3 | increasing interaction | S931A
4 | disrupting interaction | S931D
